Measured values: patent publication US20060246541A1

Target: GPIIb/IIIa (integrin αIIbβ3)
Assay: cell-based or functional assay

## native contortrostatin (from UniProt Q805F6 419-482) (ligand)
  IC50, inhibition of ADP-induced platelet aggregation: 60 nM
